This is an account of results in US20090214537A1 (Novartis, published 2009).

The target in assay [1] is putative BibA receptor on human epithelial cells (ME180, A549, Caco2, 16HBE). Briefly: flow cytometry saturation curve on ME180 cells, BibA concentration at 50% saturation (FIG. 22B). (In general: A flow cytometer gives signals particle by particle.)
Assay [2] has the same target. Briefly: flow cytometry, recombinant BibA on ME180 cells, anti-BibA serum and PE-conjugated secondary antibody.
The target in assay [3] is T1, human C4b-binding protein (C4BP) purified from citrated human plasma (human, UniProt P04003 49-597; P20851 18-252).
T1 construct: also called human plasma C4BP; human complement regulator C4 bp
T1 sequence 1: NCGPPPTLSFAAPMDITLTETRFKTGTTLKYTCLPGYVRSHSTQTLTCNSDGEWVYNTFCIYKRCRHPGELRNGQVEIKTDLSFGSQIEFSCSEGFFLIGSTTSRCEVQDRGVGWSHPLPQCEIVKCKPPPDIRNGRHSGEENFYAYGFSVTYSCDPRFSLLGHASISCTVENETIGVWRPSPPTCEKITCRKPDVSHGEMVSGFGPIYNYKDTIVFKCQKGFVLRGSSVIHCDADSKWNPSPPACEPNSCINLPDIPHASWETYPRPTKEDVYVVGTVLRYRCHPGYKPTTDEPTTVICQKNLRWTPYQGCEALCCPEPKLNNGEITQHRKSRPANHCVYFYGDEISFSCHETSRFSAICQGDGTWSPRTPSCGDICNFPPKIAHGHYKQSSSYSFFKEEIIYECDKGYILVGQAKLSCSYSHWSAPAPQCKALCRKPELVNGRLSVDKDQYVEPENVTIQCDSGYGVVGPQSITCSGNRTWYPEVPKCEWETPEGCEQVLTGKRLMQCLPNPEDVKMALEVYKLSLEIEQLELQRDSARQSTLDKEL
T1 sequence 2: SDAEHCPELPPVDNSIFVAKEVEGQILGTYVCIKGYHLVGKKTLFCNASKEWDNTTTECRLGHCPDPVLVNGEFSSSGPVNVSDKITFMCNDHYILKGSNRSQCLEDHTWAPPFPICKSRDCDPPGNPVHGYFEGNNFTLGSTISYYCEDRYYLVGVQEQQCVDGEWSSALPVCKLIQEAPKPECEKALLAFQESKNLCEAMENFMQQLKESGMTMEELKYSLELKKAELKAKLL
Kind of assay: overlay blot of the SDS-PAGE separated constructs with C4bp (FIG. 21C).

Assay [4] concerns the target T2, Factor H (alternative complement pathway regulator) (UniProt P08603 19-1231).
T2 construct: also called FH
Kind of assay: overlay blot (format not detailed).

By Kd is commonly meant the concentration at which binding is half-saturated. A higher Kd goes with lower affinity.

T2 sequence (P08603 19-1231): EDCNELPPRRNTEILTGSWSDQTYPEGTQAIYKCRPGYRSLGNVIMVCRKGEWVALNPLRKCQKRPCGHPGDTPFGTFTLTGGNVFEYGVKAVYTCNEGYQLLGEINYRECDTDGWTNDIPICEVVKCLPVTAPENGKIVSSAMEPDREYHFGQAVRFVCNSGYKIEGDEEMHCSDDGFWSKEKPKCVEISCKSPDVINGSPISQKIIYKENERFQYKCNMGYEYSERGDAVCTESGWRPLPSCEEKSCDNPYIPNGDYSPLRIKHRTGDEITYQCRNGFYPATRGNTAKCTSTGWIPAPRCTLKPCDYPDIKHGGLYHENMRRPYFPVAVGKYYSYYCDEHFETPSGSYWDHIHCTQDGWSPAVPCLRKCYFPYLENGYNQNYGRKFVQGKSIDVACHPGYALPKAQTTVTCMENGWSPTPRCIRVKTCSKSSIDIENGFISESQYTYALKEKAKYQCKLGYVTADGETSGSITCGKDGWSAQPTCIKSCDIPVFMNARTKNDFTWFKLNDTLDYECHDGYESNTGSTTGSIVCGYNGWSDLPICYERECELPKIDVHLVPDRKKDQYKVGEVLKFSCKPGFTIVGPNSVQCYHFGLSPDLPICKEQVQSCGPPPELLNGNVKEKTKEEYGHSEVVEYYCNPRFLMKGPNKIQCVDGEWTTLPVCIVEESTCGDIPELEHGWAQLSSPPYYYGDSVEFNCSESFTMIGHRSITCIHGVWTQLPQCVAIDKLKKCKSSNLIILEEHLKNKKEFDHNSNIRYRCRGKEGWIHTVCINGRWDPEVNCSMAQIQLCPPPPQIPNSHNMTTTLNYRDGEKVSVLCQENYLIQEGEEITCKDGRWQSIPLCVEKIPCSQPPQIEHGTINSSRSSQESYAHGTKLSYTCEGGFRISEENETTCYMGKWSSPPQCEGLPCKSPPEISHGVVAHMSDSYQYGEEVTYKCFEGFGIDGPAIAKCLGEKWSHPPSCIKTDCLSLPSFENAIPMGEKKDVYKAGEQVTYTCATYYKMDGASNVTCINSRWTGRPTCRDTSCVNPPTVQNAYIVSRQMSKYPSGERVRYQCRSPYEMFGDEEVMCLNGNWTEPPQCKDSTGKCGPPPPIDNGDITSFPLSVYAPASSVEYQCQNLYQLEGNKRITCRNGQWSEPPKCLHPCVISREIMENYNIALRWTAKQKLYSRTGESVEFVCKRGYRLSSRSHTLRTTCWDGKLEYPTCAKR

“BibA-His (GBS3-His), recombinant entire form of BibA from S. agalactiae 2603 V/R with C-terminal His-tag” showed a Kd in assay [1] of 40 nM. The BibA concentration at which binding reached a plateau in assay [2] amounted to 5 µg/mL.

B1: BibA-Nt-His (GBS3-Nt-His), coiled-coil domain of BibA, aa 34-394 (other)
chain: MHADTSSGISASIPHKKQVNLGAVTLKNLISKYRGNDKAIAILLSRVNDFNRASQDTLPQLINSTEAEIRNILYQGQIGKQNKPSVTTHAKVSDQELGKQSRRSQDIIKSLGFLSSDQKDILVKSISSSKDSQLILKFVTQATQLNNAESTKAKQMAQNDVALIKNISPEVLEEYKEKIQRASTKSQVDEFVAEAKKVVNSNKETLVNQANGKKQEIAKLENLSNDEMLRYNTAIDNVVKQYNEGKLNITAAMNALNSIKQAAQEVAQKNLQKQYAKKIERISSKGLALSKKAKEIYEKHKSILPTPGYYADSVGTYLNRFRDKQTFGNRSVWTGQSGLDEAKKMLDEVKKLLKELQDLTRGLEHHHHHH
notes: His-tagged fragment expressed from pET21b(+); also called BibA N-terminal construct; N-terminal portion of BibA
Turning to B1, the binding result in assay [3] is given as “binds”.

B2: BibA-Ct-His (GBS3-Ct-His), proline-rich domain of BibA, aa 389-622 (other)
chain: MQDLTRGTKEDKKPDVKPEAKPEAKPDVKPEAKPDVKPEAKPDVKPEAKPDVKPEAKPDVKPEAKPDVKPKAKPDVKPEAKPDVKPDVKPDVKPEAKPEDKPDVKPDVKPEAKPDVKPEAKPEAKPEAKPEAKPEAKPEAKPDVKPEAKPDVKPEAKPEAKPEAKSEAKPEAKLEAKPEAKPATKKSVNTSGNLAAKKAIENKKYSKKLPSTGEAASPLLAIVSLIVMLSAGLITLEHHHHHH
notes: His-tagged fragment; also called BibA C-terminal construct; C-terminal portion of BibA
In the case of B2, the binding result in assay [3] is given as “no binding (tested: 5 µg/ml)”.

B3: BibA-His (GBS3-His), recombinant entire form of BibA from S. agalactiae 2603 V/R with C-terminal His-tag (other)
chain: MHADTSSGISASIPHKKQVNLGAVTLKNLISKYRGNDKAIAILLSRVNDFNRASQDTLPQLINSTEAEIRNILYQGQIGKQNKPSVTTHAKVSDQELGKQSRRSQDIIKSLGFLSSDQKDILVKSISSSKDSQLILKFVTQATQLNNAESTKAKQMAQNDVALIKNISPEVLEEYKEKIQRASTKSQVDEFVAEAKKVVNSNKETLVNQANGKKQEIAKLENLSNDEMLRYNTAIDNVVKQYNEGKLNITAAMNALNSIKQAAQEVAQKNLQKQYAKKIERISSKGLALSKKAKEIYEKHKSILPTPGYYADSVGTYLNRFRDKQTFGNRSVWTGQSGLDEAKKMLDEVKKLLKELQDLTRGTKEDKKPDVKPEAKPEAKPDVKPEAKPDVKPEAKPDVKPEAKPDVKPEAKPDVKPEAKPDVKPKAKPDVKPEAKPDVKPDVKPDVKPEAKPEDKPDVKPDVKPEAKPDVKPEAKPEAKPEAKPEAKPEAKPEAKPDVKPEAKPDVKPEAKPEAKPEAKSEAKPEAKLEAKPEAKPATKKSVNTSGNLAAKKAIENKKYSKKLPSTGEAASPLLAIVSLIVMLSAGLITLEHHHHHH
notes: His-tagged protein expressed from pET21b(+) in E. coli; also called recombinant BibA; BibA protein
In the case of B3, in assay [4], the binding result was “no binding”.
